Test results reported in paper PMC9352680, “A comprehensive thermodynamic model for RNA binding by the Saccharomyces cerevisiae Pumilio protein PUF4”.
Changes are numbered by the printed parent chain. In names and notes the source's numbering stands.

B1: Id_ii_S2_P3E.2_K3.1_C3.2_[C-2G]_[T-1G]_H3.1_A3.1_F3.1_T3.2_[T9A]_[A10G] (ssRNA)
RNA: UUUGAUUAAUAUGAUAUCGUUCUUUCUGGUGUAUAUAAGUUCUUUCUCGAUAUCAUAUUAAUCUUU
B2: Id_ii_S2_P3E.2_K3.1_C3.2_[C-2T]_H3.1_A3.1_F3.1_T3.2_[T9G]_[A10T] (ssRNA)
RNA: B1 RNA with G28U, G29U, A38G, G39U
B3: Id_ii_S2_P3E.2_K3.1_C3.2_[C-2T]_H3.1_A3.1_F3.1_T3.2_[T9A] (ssRNA)
RNA: B1 RNA with G28U, G29U, G39A
B4: Id_ii_S2_P3E.2_K3.1_C3.2_[C-2G]_[T-1G]_H3.1_A3.1_F3.1_T3.2_[A10G] (ssRNA)
RNA: B1 RNA with A38U
B5: Id_ii_S2_P3E.2_K3.1_C3.2_[C-2T]_[T-1A]_H3.1_A3.1_F3.1_T3.2_[A10G] (ssRNA)
RNA: B1 RNA with G28U, G29A, A38U
B6: Id_ii_S2_P3E.2_K3.1_C3.2_[C-2T]_[T-1A]_H3.1_A3.1_F3.1_T3.2_[T9A]_[A10C] (ssRNA)
RNA: B1 RNA with G28U, G29A, G39C
B7: Id_ii_S2_P3E.2_K3.1_C3.2_[C-2G]_H3.1_A3.1_F3.1_T3.2_[T9C]_[A10C] (ssRNA)
RNA: B1 RNA with G29U, A38C, G39C
B8: Id_ii_S2_P3E.2_K3.1_C3.2_[C-2T]_[T-1G]_H3.1_A3.1_F3.1_T3.2_[T9G]_[A10C] (ssRNA)
RNA: B1 RNA with G28U, A38G, G39C
B9: Id_ii_S2_P3E.2_K3.1_C3.2_[C-2T]_[T-1A]_H3.1_A3.1_F3.1_T3.2_[T9G]_[A10C] (ssRNA)
RNA: B1 RNA with G28U, G29A, A38G, G39C
B10: Id_ii_S2_P3E.2_K3.1_C3.2_[C-2G]_[T-1C]_H3.1_A3.1_F3.1_T3.2_[T9C]_[A10G] (ssRNA)
RNA: B1 RNA with G29C, A38C
B11: Id_ii_S2_P3E.2_K3.1_C3.2_[C-2T]_[T-1G]_H3.1_A3.1_F3.1_T3.2_[A10T] (ssRNA)
RNA: B1 RNA with G28U, A38U, G39U
B12: Id_ii_S2_P3E.2_K3.1_C3.2_[C-2T]_[T-1A]_H3.1_A3.1_F3.1_T3.2_[T9A] (ssRNA)
RNA: B1 RNA with G28U, G29A, G39A
B13: Id_ii_S2_P3E.2_K3.1_C3.2_[C-2T]_[T-1A]_H3.1_A3.1_F3.1_T3.2_[A10C] (ssRNA)
RNA: B1 RNA with G28U, G29A, A38U, G39C
B14: Id_ii_S2_P3E.2_K3.1_C3.2_[C-2T]_[T-1A]_H3.1_A3.1_F3.1_T3.2_[A10T] (ssRNA)
RNA: B1 RNA with G28U, G29A, A38U, G39U
B15: Id_ii_S2_P3E.2_K3.1_C3.2_[C-2G]_H3.1_A3.1_F3.1_T3.2_[T9C]_[A10T] (ssRNA)
RNA: B1 RNA with G29U, A38C, G39U
B16: Id_ii_S2_P3E.2_K3.1_C3.2_[C-2T]_[T-1A]_H3.1_A3.1_F3.1_T3.2_[T9G]_[A10T] (ssRNA)
RNA: B1 RNA with G28U, G29A, A38G, G39U
B17: Id_ii_S2_P3E.2_K3.1_C3.2_[C-2T]_H3.1_A3.1_F3.1_T3.2_[A10T] (ssRNA)
RNA: B1 RNA with G28U, G29U, A38U, G39U
B18: Id_ii_S2_P3E.2_K3.1_C3.2_[C-2G]_H3.1_A3.1_F3.1_T3.2_[A10C] (ssRNA)
RNA: B1 RNA with G29U, A38U, G39C
B19: Id_ii_S2_P3E.2_K3.1_C3.2_[C-2T]_H3.1_A3.1_F3.1_T3.2_[T9C]_[A10G] (ssRNA)
RNA: B1 RNA with G28U, G29U, A38C
B20: Id_ii_S2_P3E.2_K3.1_C3.2_[C-2T]_[T-1C]_H3.1_A3.1_F3.1_T3.2_[T9C]_[A10G] (ssRNA)
RNA: B1 RNA with G28U, G29C, A38C
B21: Id_ii_S2_P3E.2_K3.1_C3.2_[C-2G]_[T-1G]_H3.1_A3.1_F3.1_T3.2_[T9A]_[A10T] (ssRNA)
RNA: B1 RNA with G39U

What follows are binders tested against T1, PUF4 RNA-binding domain (Saccharomyces cerevisiae, UniProt P25339 537-888) (assay: Mg; RNA-MaP; 20 mM Na-HEPES pH 7.4, 30 mM KOAc, 0.75 mM MgCl2, 0.1% Tween-20, 5% glycerol, 0.1 mg/mL BSA, 2 mM DTT; 25 C; 0.0125-409.6 nM protein). Settings: tags: N-His6-TEV cleaved; C-SNAP kept, Cy3B-labelled; label: tethered on chip by stalled RNA polymerase.
T1 sequence: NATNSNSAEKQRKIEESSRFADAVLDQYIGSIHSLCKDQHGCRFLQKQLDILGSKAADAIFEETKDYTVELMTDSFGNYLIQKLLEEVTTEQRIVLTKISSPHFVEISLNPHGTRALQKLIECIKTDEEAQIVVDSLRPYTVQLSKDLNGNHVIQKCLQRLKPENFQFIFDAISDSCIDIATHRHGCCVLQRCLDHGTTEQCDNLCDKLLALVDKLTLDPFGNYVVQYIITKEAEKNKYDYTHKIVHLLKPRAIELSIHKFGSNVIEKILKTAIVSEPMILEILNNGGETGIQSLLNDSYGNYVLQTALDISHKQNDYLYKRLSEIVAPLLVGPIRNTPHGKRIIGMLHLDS

**Q.** For UCUCUUCAACACUUAUUAAUUCUCUU (ssRNA) [Id_ii_S1_P5E.4_K5.3_C5.2_[T-1A]_H5.3_A5.1_F5.1_T5.2_[T11A]_[A12T]], which Kd is on record?
**A.** > 2300 nM

**Q.** How did the Kd turn out when UCUCUUCCACACUUAUUAUAUCUCUU (ssRNA) [Id_ii_S1_P5E.4_K5.3_C5.2_[T-1C]_H5.3_A5.1_F5.1_T5.2] was run?
**A.** > 2300 nM

**Q.** For UCUCUUCAACACUUAUUAUGUCUCUU (ssRNA) [Id_ii_S1_P5E.4_K5.3_C5.2_[T-1A]_H5.3_A5.1_F5.1_T5.2_[A12G]], which Kd is on record?
**A.** > 2300 nM

**Q.** UCUCUUCAACACUUAUUAACUCUCUU (ssRNA) [Id_ii_S1_P5E.4_K5.3_C5.2_[T-1A]_H5.3_A5.1_F5.1_T5.2_[T11A]_[A12C]] was tested. Which Kd did it give?
**A.** > 2300 nM

**Q.** Which Kd does the source give for UCUCUUCAACACUUAUUACAUCUCUU (ssRNA) [Id_ii_S1_P5E.4_K5.3_C5.2_[T-1A]_H5.3_A5.1_F5.1_T5.2_[T11C]] here?
**A.** > 2300 nM

**Q.** UCUCUUCCACACUUAUUAAUUCUCUU (ssRNA) [Id_ii_S1_P5E.4_K5.3_C5.2_[T-1C]_H5.3_A5.1_F5.1_T5.2_[T11A]_[A12T]] was tested. Which Kd did it give?
**A.** > 2300 nM

**Q.** How did the Kd turn out when UCUCUUCUACACUUAUUAUAUCUCUU (ssRNA) [Id_ii_S1_P5E.4_K5.3_C5.2_H5.3_A5.1_F5.1_T5.2] was run?
**A.** > 2300 nM

**Q.** For UCUCUUCAACACUUAUUAAAUCUCUU (ssRNA) [Id_ii_S1_P5E.4_K5.3_C5.2_[T-1A]_H5.3_A5.1_F5.1_T5.2_[T11A]], which Kd is on record?
**A.** > 2300 nM

**Q.** B1 was tested. Which Kd did it give?
**A.** 11.8 nM

**Q.** How did the Kd turn out when B2 was run?
**A.** 2.77 nM

**Q.** Which Kd does the source give for B3 here?
**A.** 6.87 nM

**Q.** Which Kd does the source give for B4 here?
**A.** 5.15 nM

**Q.** B5 was tested. Which Kd did it give?
**A.** 31.5 nM

**Q.** How did the Kd turn out when B6 was run?
**A.** 16.3 nM

**Q.** B7 was tested. Which Kd did it give?
**A.** 18 nM

**Q.** Which Kd does the source give for B8 here?
**A.** 6.53 nM

**Q.** B9 was tested. Which Kd did it give?
**A.** 5.76 nM

**Q.** Which Kd does the source give for B10 here?
**A.** 20.2 nM

**Q.** With B11 as the binder, how does the Kd read?
**A.** 1.33 nM

**Q.** For B12, which Kd is on record?
**A.** 16.9 nM

**Q.** Which Kd does the source give for B13 here?
**A.** 6.09 nM

**Q.** For B14, which Kd is on record?
**A.** 3.9 nM

**Q.** B15 was tested. Which Kd did it give?
**A.** 44.5 nM

**Q.** With B16 as the binder, how does the Kd read?
**A.** 7.14 nM

**Q.** With B17 as the binder, how does the Kd read?
**A.** 1.56 nM

**Q.** For B18, which Kd is on record?
**A.** 8.98 nM

**Q.** Which Kd does the source give for B19 here?
**A.** 3.7 nM

**Q.** How did the Kd turn out when B20 was run?
**A.** 7.76 nM

**Q.** Which Kd does the source give for B21 here?
**A.** 3.82 nM
